{"source": "paper PMC6787100", "key": {"[1]": {"molecular_target": "Hag (ex), recombinant Hag with the flg22 region replaced by flg22 (Ps) (Bacillus subtilis BSn5 | Pseudomonas syringae)", "experiment": "MST; protein labelled with Cy5-NHS ester at fixed concentration, serial 2x dilutions of unlabelled subtilomycin (1 mM set as highest; 500 μM highest final in the legend); PBS pH 8.0; MST power 20%, LED power 60%; Monolith NT.115; constants called ambiguous, based on total subtilomycin concentration"}, "[2]": {"molecular_target": "lantibiotic subtilomycin (Bacillus subtilis BSn5)", "experiment": "tricine-SDS-PAGE; purified subtilomycin on 16% tricine-SDS-PAGE; bands of around 9, 12 and 15 kDa; oligomers of subtilomycin"}}, "note": "Values joined by “and” are separate entries in the source; they are usually repeats but may differ in a detail not shown here. Equal values may be shown once."}
{"substance": "lantibiotic subtilomycin (peptide)", "values": [{"measurement": "Kd", "setting": "[1]", "value": 80.6, "unit": "µM"}, {"measurement": "stoichiometry N", "setting": "[2]", "value": "3 and 4 and 5"}]}
